[ ]: non-standard residue; d: D form. The star is where a group is joined. FITC = O=C1OC2(c3ccc(O)cc3Oc3cc(O)ccc32)c2ccc(NC(=S)*)cc21; Ahx = NCCCCCC(=O)O

One assay concerns the target T1, GST-Bcl-XL (UniProt P08515 1-218 = GST; Q07817 1-211).
T1 construct: Control protein in FP and CD assays
The experiment in a line: fluorescence polarization. On the procedure:
(§1) Fluorescence polarization (FP) analysis was used to determine whether NuBCPs interacted directly with Bcl-2. […] GST-Bcl-2, but not GST-Bcl-XL or GST, induced a concentration-dependent FP of FITC-NuBCP-9-r8 and FITC-D-NuBCP-9-r8, while FITC-NuBCP-9/AA-r8 was little affected (FIG. 2C-E). […] Thus, NuBCP-9 and D-NuBCP-9 bind directly and competitively to Bcl-2.
(§2) Fluorescence polarization (FP) assays. GST-Bcl-2, GST-Bcl-XL, or GST protein was briefly incubated with FITC-conjugated peptide with or without competitors in Greiner Fluotrac 600 96-well microplates. Fluorescence polarization was recorded using an Analyst HT 96-384 microplate reader (Molecular Devices, Sunnyvale, Calif.) with excitation wavelength set at 485 nm and dynamic polarizer for emission at 530 nm.
A general note: Fluorescence polarisation rises when a labelled molecule tumbles more slowly, as on binding a larger partner.

The target of another assay is T2, GST (UniProt P08515 1-218 = GST).
T2 construct: Control protein in FP and CD assays; also called GST protein
T2 sequence (P08515 whole entry): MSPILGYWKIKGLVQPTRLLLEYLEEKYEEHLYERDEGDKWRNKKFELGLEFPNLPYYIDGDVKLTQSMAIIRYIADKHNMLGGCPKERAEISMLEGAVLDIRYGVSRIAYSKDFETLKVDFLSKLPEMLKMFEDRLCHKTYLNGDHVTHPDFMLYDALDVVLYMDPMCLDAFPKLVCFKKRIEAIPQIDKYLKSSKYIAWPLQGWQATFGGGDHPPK
The experiment in a line: fluorescence polarization. On the procedure:
as §1, §2

In assay [1] the target is T3, GST-Bcl-2 (UniProt P08515 1-218 = GST; P10415 1-218).
T3 construct: Bacterially expressed, purified GST fusion used in FP, CD and in vitro immunoprecipitation; also called purified GST-Bcl-2 protein; bacterially expressed Bcl-2
T3 sequence (P08515 1-218, tags or fused parts left off): as the sequence (P08515 whole entry) above
Put plainly: fluorescence polarization competition. As for the experimental part:
as §1, §2

The target of assay [2] is T4, Bcl-2 (UniProt P10415 1-239).
T4 construct: Cellular Bcl-2 in co-immunoprecipitation and immunostaining assays; also called endogenous Bcl-2
T4 sequence (P10415 whole entry): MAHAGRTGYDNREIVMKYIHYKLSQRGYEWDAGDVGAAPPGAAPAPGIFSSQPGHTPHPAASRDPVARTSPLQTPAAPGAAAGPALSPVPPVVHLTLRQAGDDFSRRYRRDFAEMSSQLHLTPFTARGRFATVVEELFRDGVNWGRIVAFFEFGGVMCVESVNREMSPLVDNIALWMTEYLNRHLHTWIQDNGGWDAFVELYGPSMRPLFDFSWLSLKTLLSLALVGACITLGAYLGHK
The experiment in a line: not described at this place.

Assay [3] addresses T3, GST-Bcl-2. The experiment in a line: circular dichroism of GST-Bcl-2 with peptide, non-linear regression, one-site-binding model. As for the experimental part:
We then explored whether the Bcl-2 conformational change by Bcl-2 was a direct consequence of Nur77 binding. Experiments were performed to determine whether NuBCPs could induce a conformational change of bacterially expressed Bcl-2. To this end, the ability of purified GST-Bcl-2 protein to react with anti-Bcl-2/BH3 antibody in the presence of NuBCP was analyzed by immunoprecipitation assay. […] In contrast, NuBCP-9, D-NuBCP-9 and NuBCP-9/AA had no effect on CD spectra for GST or Bcl-XL (FIGS. 9-11). Thus, the NuBCP-induced Bcl-2 conformational change observed in cells can be accounted for by direct binding of NuBCPs to Bcl-2.
Circular dichroism (CD) spectroscopy. Stock solutions of 3 mM peptide in 30% acetonitrile/water were added to 0.5 mL of 2 μM purified GST-proteins in PBS, pH 7.6. CD spectra were obtained in a 0.2 cm pathlength cell at 20° C. using an AVIV 62 DS spectropolarimeter for a wavelength range from 200 to 260 nm with a step size of 1 nm averaged for 5 sec. Three spectra were corrected for background and averaged for each sample. The Kd was determined using nonlinear regression analysis for a one-site-binding model (χ2>0.98). Stoichiometry was determined from a […] (Jones, G. et al. 2002 Tet. Let. 43 :6079-6082).
(In general: Circular dichroism is the unequal absorption of left and right circularly polarised light.)

The target of assay [4] is T4, Bcl-2. Put plainly: immunoprecipitation.
The target of a further assay is T5, Nur77 (Homo sapiens (Human), UniProt P22736 1-598).
T5 construct: also called TR3; NGFI-B
Put plainly: not described.

T1 sequence (P08515 1-218, tags or fused parts left off): as the sequence (P08515 whole entry) above

B1: FITC-NuBCP-9-r8 (peptide)
peptide: {FITC}-FSRSLHSLLG[Ahx][dR][dR][dR][dR][dR][dR][dR][dR]-NH2
modifications: not fully specified
notes: The point of attachment of FITC is not described beyond the name; also called FITC-L-NuBCP-9-r8
Consider B1, for which the binding result in the assay with GST-Bcl-XL and with GST was “no binding” in each case.
Ac-ASRSLHSLA-NH2 (Unconjugated form) [NuBCP-9/AA (unconjugated)]: the binding result in the assay with GST-Bcl-2 [1] was “no binding”.

B2: Nur77 fragment DC-3 (other)
chain: GLVLHRLQCARGFGDWIDSILAFSRSLHSLLVDVPAFACLSALVLITDRHGLQEPRRVEELQNRIASCLKEHVAAVAGEPQPASCLSRLLGKLPELRTLCTQGLQRIFYLKLEDLVPPPPIIDKIFMDTLPF
For B2, the binding result with Bcl-2 [2] was “binds”.
Broadly, the Kd is the concentration at which binding is half-saturated. Ac-FSRSLHSLL-NH2 [NuBCP-9 (unconjugated)] registered a Kd in the assay with GST-Bcl-2 [3] of 2100 nM.

B3: NuBCP-20-r8 (peptide)
peptide: GDWIDSILAFSRSLHSLLVDKKCXRRRRRRRR
modifications: not fully specified; N-terminal acetyl; C-terminal Cys thiol linked to chloroacetylated 6-aminohexanoyl (X); eight D-arginines (r8)
notes: also called NuBCP-20-r8-peptide; TR3 peptide
With B3, the binding result in the assay with Bcl-2 [4] was “binds”.

B4: Bfl-1 (other, UniProt Q16548 1-175, looked up)
chain: MTDCEFGYIYRLAQDYLQCVLQIPQPGSGPSKTSRVLQNVAFSVQKEVEKNLKSCLDNVNVVSVDTARTLFNQVMEKEFEDGIINWGRIVTIFAFEGILIKKLLRQQIAPDVDTYKEISYFVAEFIMNNTGEWIRQNGGWENGFVKKFEPKSGWMTFLEVTGKICEMLSLLKQYC
Turning to B4, in the assay with Nur77, the binding result was “binds”.

B5: Bcl-B (other, UniProt Q9HD36 1-204, looked up)
chain: MVDQLRERTTMADPLRERTELLLADYLGYCAREPGTPEPAPSTPEAAVLRSAAARLRQIHRSFFSAYLGYPGNRFELVALMADSVLSDSPGPTWGRVVTLVTFAGTLLERGPLVTARWKKWGFQPRLKEQEGDVARDCQRLVALLSSRLMGQHRAWLQAQGGWDGFCHFFRTPFPLAFWRKQLVQAFLSCLLTTAFIYLWTRLL
As for B5, in the assay with Nur77, the binding result was “binds”.

The values above are taken from patent publication US20070054863A1 (SANFORD BURNHAM MEDICAL RESEARCH INSTITUTE, published 2007).
